T1: amphyphisin SH3 (AMPH_HUMAN), P49418
T1 chain: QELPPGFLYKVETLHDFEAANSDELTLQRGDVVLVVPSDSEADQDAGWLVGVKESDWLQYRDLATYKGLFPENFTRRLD


Target: T1, amphyphisin SH3 (AMPH_HUMAN), P49418
Test: SPOT array

normalised SPOT signal, Boehringer light units (BLU); mean over the file's lines of this peptide | Binder
485 | KLMEPHRPERQDEK [P49593 287-300]
327 | KNLDISRPDKKSKK [P46977 431-444]
20.4 | KFLDPARPYKSTVS [Q9C0A1 71-84]
35.5 | KGTIPKRPWLSATP [O15043 393-406]
33.1 | KGRVLKRPPNSVVT [Q9HC49 341-354]
46.6 | KLFRPRRPRSSSDA [O94820 221-234]
2590 | KKDSFERPRRVGAK [O95391 130-143]
32.3 | KPEGLRRPPSKTSM [Q15047 1069-1082]
2580 | KPQRPRRPASPIST [P07360 22-35]
59.9 | KGPGPQKPPTEADK [O15021 1933-1947]
201 | KPGSPYRPPVPRAP [Q14687 646-660]
15.8 | KKPPLRRPHSVIGG [Q00537 66-79]
6680 | KITPPRRPHRSSSG [Q9NWB4 151-164]
56 | KPASPKKPPPGERS [O60382 1692-1706]
23.6 | ANLQPKRPKTIKQR [Q9NXX2 8-21]
32.4 | KLKSPKRPASPSSP [Q9H8D2 66-79]
39 | KIIPPKKPPTKVVP [Q8WZ42 11374-11388]
44.3 | KFWDLRRPYEPINS [Q16632 639-652]
9 | KPQTIKRPLNPLAS [Q9UKV6 127-140]
1520 | KPQPPARPPPPVLP [Q9UKL5 750-764]
43.2 | KPASPKKPPPGERR [Q9UQ36 1183-1197]

normalised SPOT signal, Boehringer light units (BLU); mean over the file's lines of this peptide | Binder
11.1 | KKYLPKRPAKDDPE [Q15642 51-64]
476 | ANKILNRPKRYNSG [P00740 37-50]
64.8 | KGSKPVRPPAPGHG [Q9UH43 133-147]
77.8 | KNRTFLRPPKVKME [O75937 248-261]
21.4 | KFLDPSRPYKSTVS [Q15911 1537-1550]
1200 | KISWLSRPRRVSLS [Q13577 12-25]
118 | KPPALPRPIRNLEV [P47895 16-29]
1310 | KIPKPPKPPKPPRP [Q9Y6N4 503-517]
12.6 | ANLALRRPQGSTSR [P06681 588-601]
45.6 | KLEDPRRPDTSFLW [O75923 2014-2027]
24.6 | KLGTLRRPEGPAEP [Q14289 12-25]
0 | KLMKFSRPKKTRSG [Q9UIG2 1550-1563]
149 | KIGFFKRPLKKKME [P56199 1137-1150]
21.8 | ANIRLKRPLKMEDP [P23378 97-110]
150 | KKPVPARPPPPTNF [AAH28697 228-242]
36.3 | KGAPFRRPLYTNVP [Q9NQ11 1067-1080]
2170 | KLDTPLRPARQQPT [Q14775 472-485]
1290 | KPPKPPRPPKTLKL [Q9Y6N4 509-523]
3550 | KPPKPPKPPRPPKT [Q9Y6N4 506-520]
26.8 | KIVDPKRPLMPEES [Q9BXK3 581-594]
159 | KKPDIPRPIKINLL [Q9UHI5 412-425]

target: endophilin SH3 (SH3G2_HUMAN), Q99962; test: SPOT array

normalised SPOT signal, Boehringer light units (BLU); mean over the file's lines of this peptide | Binder
146 | KLMEPHRPERQDEK [P49593 287-300]
342 | KNLDISRPDKKSKK [P46977 431-444]
43.5 | KFLDPARPYKSTVS [Q9C0A1 71-84]
516 | KGTIPKRPWLSATP [O15043 393-406]
25.2 | KGRVLKRPPNSVVT [Q9HC49 341-354]
316 | KLFRPRRPRSSSDA [O94820 221-234]
106 | KKDSFERPRRVGAK [O95391 130-143]
41.2 | KPEGLRRPPSKTSM [Q15047 1069-1082]
9220 | KPQRPRRPASPIST [P07360 22-35]
82.6 | KGPGPQKPPTEADK [O15021 1933-1947]
1840 | KPGSPYRPPVPRAP [Q14687 646-660]
81 | KKPPLRRPHSVIGG [Q00537 66-79]
2730 | KITPPRRPHRSSSG [Q9NWB4 151-164]
737 | KPASPKKPPPGERS [O60382 1692-1706]
55.4 | ANLQPKRPKTIKQR [Q9NXX2 8-21]
803 | KLKSPKRPASPSSP [Q9H8D2 66-79]
132 | KIIPPKKPPTKVVP [Q8WZ42 11374-11388]
61.9 | KFWDLRRPYEPINS [Q16632 639-652]
52.2 | KPQTIKRPLNPLAS [Q9UKV6 127-140]
10900 | KPQPPARPPPPVLP [Q9UKL5 750-764]
779 | KPASPKKPPPGERR [Q9UQ36 1183-1197]

normalised SPOT signal, Boehringer light units (BLU); mean over the file's lines of this peptide | Binder
195 | KKYLPKRPAKDDPE [Q15642 51-64]
198 | ANKILNRPKRYNSG [P00740 37-50]
21200 | KGSKPVRPPAPGHG [Q9UH43 133-147]
55.9 | KNRTFLRPPKVKME [O75937 248-261]
86.2 | KFLDPSRPYKSTVS [Q15911 1537-1550]
492 | KISWLSRPRRVSLS [Q13577 12-25]
958 | KPPALPRPIRNLEV [P47895 16-29]
9990 | KIPKPPKPPKPPRP [Q9Y6N4 503-517]
322 | ANLALRRPQGSTSR [P06681 588-601]
22.4 | KLEDPRRPDTSFLW [O75923 2014-2027]
10.4 | KLGTLRRPEGPAEP [Q14289 12-25]
1.7 | KLMKFSRPKKTRSG [Q9UIG2 1550-1563]
200 | KIGFFKRPLKKKME [P56199 1137-1150]
228 | ANIRLKRPLKMEDP [P23378 97-110]
11900 | KKPVPARPPPPTNF [AAH28697 228-242]
167 | KGAPFRRPLYTNVP [Q9NQ11 1067-1080]
1390 | KLDTPLRPARQQPT [Q14775 472-485]
25300 | KPPKPPRPPKTLKL [Q9Y6N4 509-523]
16900 | KPPKPPKPPRPPKT [Q9Y6N4 506-520]
34 | KIVDPKRPLMPEES [Q9BXK3 581-594]
307 | KKPDIPRPIKINLL [Q9UHI5 412-425]
